These results are taken from publication PMC4737579.

Non-standard residues stand in square brackets, D forms with d. No end group written: not given here.

The term Ki denotes the equilibrium dissociation constant of an inhibitor or competing ligand from its target. A low value points to tighter binding.

In this assay the target is soluble human furin (human) (UniProt P09958). Description: enzyme inhibition.

As to [dR][dR][dR][dR][dR][dR][dR][dR][dR] [nona-D-arginine], the Ki was 140 nM.
